Results: a protein production outcome set (Wang et al. 2014)

Assay: label from the status in PepcDB records

Sequence: MSYVDISYYKDNFKGDILNDDTLENRLERASDQIDKLTYNRIIGVEFKNLSPFQQDKIKKAVCLQAEFIEQYGEFINMPLSGFSAGSTSVSFNGSIVNGITTTQEVINYIYQTGLNSRRILEHHHHHH
- protein production: failed

Sequence: MNNIAAIVVTYNRKKLLKKCIKGLKEQTEKADIIIIDNMSTDGTLEMLQPLINSNEIIYHSTGKNIGGAGGFYEGIKLAYEMGYKYFWLMDDDCIPTSSALEKLMNVVNEKKNFGFLVSKALWKDGEVCKMNIPKIKLTKQVNDFSKKVIQIKMGTFVSFLTSREVVEKVGLPIKEFFIWGDDLEYSQRISQKFPSYLVTNSLVYHETKLNEGSNIALDSVDRLKRYKLAYRNEVVLFKEMGLQGQMYQYFRLVLHCGRILFKSKDHKKERLNIIFQGTRAGYNFHPVIKNIK
- protein production: failed

Sequence: MVHETDKDPAPAVGPLASAMPRGNFAASLRSPGAKFLMIGFISLVLLVPLLLVWGLTEERASRAREVSARIANGWGGDQVVNGPYLAVPFDVERRREVDGRTIVDRTTEWALVMPETLQVTADLKTEEKKLSIYSLPVYNGALVLKGRFGQGVLQDLARFAGTPRLDNAILVLSIGDITGIRSSAGVRINGGAVLPFDPGMRDMSVIASRALENNSIRSDAGVHRQIDRNLIESGFDFDIAFSLNGSGSFAVAPAGQTTSFTAKADWPHPGFEGLFLPEVKTVTAADFNASWTIPYLARGIDRVVEGPRLPLSNSLMTINLVEPVKFYQVIARTLKYSIGFISLVFLAVFIVELKGGSVVHWIQYVLTGLALIVFYVLLLALAEHTGFTVAYAAASFSTAALIAFYLGSATRSRRNGLALFSVLAVAYGVMYLVLNEDEYALLAGAVISFIAIAATMFATRKVDWSGAGTAANSEFSSRT
- protein production: failed

Sequence: MTLETISSLLPMSAAGLAAVVSALAALGLGLGLWCARHRLRLLTAALEASGCGLITIEGGTRVFQANRQAARLLGRPEGLARDTQARKLFGGTLTAAVQGPGDGQPVRGTAHRPDHGWFPATLQSLGPCGGFARQRRLWLLRDLSDAQELERLRETEERFNASQRFGRIGVWDWNTETNEVFWSEEVFPMFGFTPAEITPTYDLFIAMVHPDDFVALTDSERACLSGTTLHDQEYRVIWRDGSVHWIRETADVLRESDGTPRRMVGVIREVTEEKEAQRQALRIAMLDPLTGLPNRATFLERLEADLGQVDETGVAVPLALAFIDLDDFKPINDTYGHLMGDRVLMTIAKRLSEAVRPQDMVARVGGDEFVALLRGCRDGARARTVAARLLDAVTAPVSIDTVIHRVRASIGISLYPSLVSTGDDLIATADQAMYVAKRAGGDPIRLHGE
- protein production: failed

Sequence: MSLSKTFLNELANQALTNPNDFTKGEKKQESFLLEYVSANPTGPLHIGHARGAVFGDTLTRLARHLGYKFNTEYYVNDAGNQIYLLGLSILLSVKESILHENVEYPEQYYKGEYIVDLAKEAFEKFGKEFFSEENIPSLADWAKDKMLVLIKQNLEQAKIKIDSYVSERSYYDALNATLESLKEHKGIYEQEGKIWLASSQKGDEKDRVIIREDGRGTYLAADIVYHKDKMSRGYGKCINIWGADHHGYIPRMKAAMEFLGFDSNNLEIILAQMVSLLKDGEPYKMSKRAGNFILMSDVVDEIGSDALRYIFLSKKCDTHLEFDISDLQKEDSSNPVYYINYAHARIHQVFAKAGKKIDDVMKADLQSLNQDGVNLLFEALNLKAVLNDAFEARALQKIPDYLKNLAANFHKFYNENKVVGSANENDLLKLFSLVALSIKTAFSLMGIEAKNKMEHEGHHHHHH
- protein production: not failed

Sequence: MVDDRFNHFRIINRVLEKGMPVLTPVSVAIGVWMAERFSNFASAVPWLFAVISFVGALGLTLVDIRERLRRPQAMIVTLFILQILMPLIALLVGMWLFDPMTRSGLVLAFSIPTGVMSLMWVTIYHGNKSFALAVVFIHTLLSPFFIPWTLRWFIGTDIPFDVGGMVWGLLWMIVIPSLLAISATRYTPKVVPMMKDVLSPIAKLHLFLIIMINSSVAAPFIRSWDLSLLYIILTVLAIALSGYGLGYVGARLLKLDESMRISMVYTCGMRNIGAGAALAVAYFPPPVMVPIVAAILFQQVLAAALGKWMRTGRTDQSLIERGTT
- protein production: failed

Sequence: MLLITPDELKSYSVFESVKTRPDELLKQDILEATADIILKVGHDFSDAEYIPLPETVRLALLKLSQFYALINGDESIIKGYTTEKIGDYSYTLGDGSPLQKPDVYALIKDYVKPADPDLEGIEAKVRMRSILEHHHHHH
- protein production: not failed

Sequence: MTSAREAFDLYRAGRTAEAAALCERLVAAAPSVEAWHLLGVARLELGAAQAALTALDAGLALDPVRPGLLSARTLALTSLHRDDEAVVAARAALAVDPDNPPVFNALAVSLQRLGGFSEALAAIDHAVAAAPREAAYRAHRAALLVLLNRPAEAARDLEAVLEVNPSHPRVAGDLMWARRQTCDWREDAALDMLVKADLKLGRAGVAPFAALALFDLPVLHRRCATLSAPPSVPAPVWPVRRPGERLRVAYLSSDLHEHATARLLAGVLEAHDRSRFEIFAVSYGPETGGAMQERLRAACEHWIEARRLSDAEIALKCRQQGVDIAVDLKGYTQDGRPGILAHRAAPLQVSWLGYPGTLGAHADVVLADAVTLPPGAETNWSEAVVRLPCYQPNDGLTSVIPAPSRADMGLPERVRVFCCFNNPAKITPEVFATWMAILRAAPDSVLWLYAGAPGAADNLRGHARAAGVAPERLVFAEPAPHEAHLARHVLADLVLDTWPYGAHTTASDALRMGVPVLTLPGESFASRVGASLATAIGMTELIATSRADYVAKALAMAADGALKPRVAEAVRRSNLFDPVAFARSLETVYAGLVRR
- protein production: failed

Sequence: RQVQKELGDVLVRLHNPVVLTPTTVQVTWTVDRQPQFIQGYRVMYRQTSGLQATSSWQNLDAKVPTERSAVLVNLKKGVTYEIKVRPYFNEFQGMDSESKTVRTTEE
- protein production: not failed

Sequence: MNLQNWKLSEYVCAVENLSYTEFFRIIEYANDAGIPVNFVTNGTLITEEFVKKLSELNIGSVQVSLDGSKPEIMDRLRGNGIFHRAINSIKRLIDYGINTSVAFCATRINIRDFPNVVELASKLGVFEVRSMYFVPETEAHIKLAPSESQYKELLQWIYDN
- protein production: failed

Sequence: MASQIDQYAVFGNPINHSKSPFIHTLFARQTQQSMIYTAQCVPVDGFTEAAKHFFAQGGRGCNVTVPFKEEAYRFADRLTERARLAGAVNTLKKLDDGEILGDNTDGEGLVQDLLAQQVLLKGATILLIGAGGAARGVLKPLLDQQPASITVTNRTFAKAEQLAELVAAYGEVKAQAFEQLKQSYDVIINSTSASLDGELPAIDPVIFSSRSVCYDMMYGKGYTVFNQWARQHGCAQAIDGLGMLVGQAAESFMLWRGLRPGTKQILRELRKNLEGAL
- protein production: not failed

Sequence: MDFGSFLKAPEIKVKIVTYRDIFQDKAMIENRFGEEYRDRSAVIKMDSADLKQLNVKKGETVILKNSFGTVVVKAEESGYEPSHRGIAYMPKSPWSNMLVSDETGGTGIPKFKDISVTVTSAKGQKLTELGL
- protein production: not failed

Sequence: MDVTIERVNDFDGYNWLPLLAKSSQEGFQLVERMLRNRREESFQEDGEAMFVALSTTNQVLACGGYMKQSGQARTGRIRHVYVLPEARSHGIGTALLEKIMSEAFLTYDRLVLYSEQADPFYQGLGFQLVSGEKITHTLDKTAFADSNR
- protein production: not failed

Sequence: MPSMPFLTRPVLAAGTFSGAPQPTLPTGDGLVLRPWRTEDAPAVHVAFQDPVMHQWHARAADSEEEVRGWITEWQGAWERERGVQWAVADAADDRLLGRVALREWVLGDGVAEVAYWTTADARGRGVAARATRTLAHWALDEIGFQRLELLHAVANDASCRVAQKTGFALEGTKRKAVLHPDGWHDMHLHARVRGD
- protein production: failed

Sequence: MNPAPERTVMQHVRPLPYEADFTGFLSNTVAPRWMEALRIQRMRTCFPHFDSGAPQHLCIITETTVRYRKPVRYSDAIVGKAWLQSARYSRWIIAFSFAFEFSGLPAFEGRQAGTFIDPLEHHHHHH
- protein production: failed

Sequence: MSGLRAGHMPKGRLSGRPSFYFFSQAKLMSRQLDHGRETLMDIFHRHRLSNEGYAASVLERAMQTAEHRPEALVWKGMAALAHNPKLAFLFFINAAQLLPDRADVQALVGRALLAQGLAVLATRYLTQAWQKLPDDASLRMLLWQARSQSEPPATLRSMILAHLPEINAPKELAQVIKLLAAQADAPRRIGVVRYLETHREIQGWAIDLGNLQAPASLKIEADSVNVDAVASIPHPLLSAAGLCTTHGGLRVSVPNPKAQVHIRFADNTHLVGSPVFAMPSFVPPIEQGTQVEQKHVDVLIPVYNGLHETLECINSALEARKLNRTPHRLVVIEDATPVPALAKALKMLAGKGKITLVNNAVNMGFIRTMNRAMALSPGRDVVWLNADTRVQGNWLDRLRNIAHSSADIASVTPFTNNGELMSFPQSQVSHAMPNAREQAALDELAKHANISPVEIETGCGFCLYIKRAALNQVGYLDEVYLARGYGEETDWCLRARSFGWRHMGAPNVFVAHQGGISFGAEKTLRVAHNNAILRRRYPGASARYSAFCLRDPIKAARDALQRARLARFAQQSDEQKASQWPMEAGNTLHIHDGTGADSTLSLVWHRDSHRTWVTLKAPLAPLPLELDYEMPGEFSELVQNLATLPLKGVVLEHQVQCPSKLCDLPSLLNIPYTIVHRDGHLQGLDATYDWQRLANRAESVVLPWQSWHSAFAEAFPQANLVIQPCAELPTPATSQPNILLIGDALDDTDIIQTWVRLGRRITRERLPLTLLVKQDTPWLKTLSATGAVQALPQVTGFSLPEIAKATGCDAVVSLAASPGEKWLAPELASQLDLPLYTRCHSLGTEAGATCVTQLPFSLSQA
- protein production: failed

Sequence: VEIRTGEFEDIAGITDIFNFYIEHTNARFEEFPFTLENREEWFSQFSRTTKYQIYVAVENGVLQGFACSQKYRAIPAFDDTVEVSVYLAQEAKGKGLGSKLYTQLFSSIRAYGVHRILSGVALPNDASVALHKRFGFREVGIFNEYAKKHGQYISSVWLEKALNVESAL
- protein production: failed

Sequence: MIKLSSITAHILDIWHRRNSRSYIAHLRSLGIRIGDGCIFRDPLTTRIDVSRPALVSIGSNVDMNTYFQILTHDWASFVFRNKYHDFVNSSGRVEIGSNIYIGTNVIVLRGVTIGDNCVIGAGSVVTHDIPANSVAVGAPCRVVCSLEHHHHHH
- protein production: not failed

Sequence: MNTGMGLIWIAGASGLLAFLTSLLYFFRQDRKFLALSEKLELIAGVGLVFAIFLLAFYLLGVDTQYSYVFQHSSTDLAWHYRFSALWAGQEGSFLIWTGFIFVMLAITRFTGTGKVLRETEIFSIMRSVSLFVASVFLLLLALKNPFSMYYYTGTGVPDVTNWNLFAEPFVVSYGQGMNPLLRNPWMAIHPPLLFLGYAAFTLPFSAAIGGLVLKDSRWSELATGWMRVSWLFLTLGIGFGAFWAYEVLGWGAWYWTWDPVETSSLIPWLTATAYLHAKLRARQGEYGFLLPMLALVSFILVIFSTFVTRSGLWVSVHSWQDFTMEGMIIALFLVVLIGSSAVLLVRKYFSEE
- protein production: failed

Sequence: QEIASRLPYFCSGCPHNSSTKVPDGSRAYAGIGCHYMVQWMDRNTQGFTHMGGEGANWIGEAPFSKTKHVFQNLGDGTYNHSGVQAIRAALAAGTNITYKILFNDAVAMTGGQENEGDLSAPRIVAELKAMGVKELAVVYDDKEDVDRSQFPSGIPFHERAELMQVQKRFREIAGVSAIVYIQTCAAEKRRRRKRGTFPDPDKRAFINTDICEGCGDCGVQSNCVSIVPKETELGRKRAIDQSSCNKDFSCVKGFCPSFVTVQGAKIRKEATAEIDL
- protein production: failed

Sequence: MSDPYPATEAHAQRAAKSPPKSLLDRLLSLVRREPEDREGIKAILEAAHERELLDAESYAMIKGALAVSERTVADIMVPRSRMDLLDISQPLPQLLATIIETAHSRFPVYEDDRDNIIGILLAKDLLRYMLEPALDIRSLVRPAVFIPEVKRLNVLLREFRASRNHLAIVIDEHGGISGLVTMEDVLEQIVGDIEDEFDEDEEESIFPEGENQWRLTASTDISHFNATFATDLPDDEYDSVGGWLGGQLGRIPRRGDSADHDGLHIEVVRADARRALWLRVRRNAGAQPPASAAE
- protein production: not failed
